The source of these data is US7851592B2, “Compositions and methods for inhibiting G2 cell cycle arrest and sensitizing cells to DNA damaging agents” (CanBas Co. Ltd., priority 1999, dated 2010).

The first test deals with human Chk2 kinase (Homo sapiens, UniProt O96017). Put plainly: In vitro phosphorylation (kination) of membrane-immobilized peptides by human Chk2 kinase (Gst-Chk2). In kind it is biochemical. More on the design: key to phosphorylation signal by human Chk2 kinase (graded) / in vitro phosphorylation by human Chk2 kinase (graded signal): a “+++” indicates the peptide was relatively highly phosphorylated; a “++” indicates the peptide was relatively less phosphorylated; a “+” indicates the peptide was detectably significantly phosphorylated over negative control; no indication indicates that a peptide was not significantly phosphorylated over negative control. The settings on record: peptide on membrane; Gst-Chk2. On the procedure: Exemplary peptides were directly synthesized (immobilized) on a membrane and contacted with human Chk2 kinase. Specifically, oligo-peptides with all sequences predicted by the 3-dimensional model were directly synthesized on a membrane by using an auto-spot-peptide-synthesizer, Model ASP-22 2 (ABiMED, Germany). The amount of peptide was about 0.1 micro-mol/cm^2.
Sequence of human Chk2 kinase (O96017 whole entry): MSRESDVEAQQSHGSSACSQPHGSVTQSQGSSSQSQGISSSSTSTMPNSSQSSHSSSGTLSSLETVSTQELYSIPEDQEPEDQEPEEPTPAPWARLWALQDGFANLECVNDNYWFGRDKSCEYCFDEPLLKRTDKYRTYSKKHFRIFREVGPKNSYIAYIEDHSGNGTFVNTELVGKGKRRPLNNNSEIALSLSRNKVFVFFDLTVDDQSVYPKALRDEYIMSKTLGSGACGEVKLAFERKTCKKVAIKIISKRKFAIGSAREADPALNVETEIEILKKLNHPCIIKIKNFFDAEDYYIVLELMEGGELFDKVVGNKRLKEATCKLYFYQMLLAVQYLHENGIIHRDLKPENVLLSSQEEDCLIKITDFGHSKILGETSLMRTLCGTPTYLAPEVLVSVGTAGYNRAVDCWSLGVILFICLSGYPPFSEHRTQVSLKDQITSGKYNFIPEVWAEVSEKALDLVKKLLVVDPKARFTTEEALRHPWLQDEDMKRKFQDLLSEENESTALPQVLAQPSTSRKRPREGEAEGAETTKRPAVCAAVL
The membrane was incubated with 2% Gly-Gly in PBS for 2 hours (hr) at room temperature (RT). Then, they were washed three times with 0.1% Tween-P BS™. The “kination,” or “phosphorylation,” reaction was performed with a recombinant fusion protein Gst-Chk2 at a concentration of about 5 μg in 4 ml reaction buffer, 1 mM MgCl2, 2% Gly-Gly and γ-^33P-ATP in PBS at RT for 1 hr. After the reaction, the membrane was washed 5 times with RIPA (1% SDS, 1% NP-40, 100 mM NaCl) and analyzed with a Bass 2500™ image analyzer (Fuji, Japan).
The following Table 1 is a complete list of tested peptides and results of the in vitro phosphorylation by human Chk2 kinase assay.
The following example describes studies which identified exemplary G2 checkpoint-abrogating peptides of the invention. The following peptides of the invention were synthesized directly on membranes and tested in in vitro phosphorylation (“kination” assays, as described above.
These peptides were tested in in vitro kination reactions. The oligopeptides were used as phosphorylation substrates; added kinases are involved in the cell cycle G2 checkpoint. Thus, a substance that inhibits the kination reaction can be a cell cycle 62 checkpoint abrogator. For the detection of the phosphorylation status of substrates in this screening method, isotope-labeled ATP and anti-phospho-peptides antibody can be used.
L Y R S P S Y Y E N L (LYRSPSYYENL): the “phosphorylation by human Chk2 kinase (in words)” value is given as “best phosphorylation substrates”.
Take W Y T S P S Y F E N L (WYTSPSYFENL): the “phosphorylation by human Chk2 kinase (in words)” value is reported as “best phosphorylation substrates”.

The test is the same for the next values; noted with them: peptide on membrane; Gst-Chk2; γ-33P-ATP; RT 1 hr.
For the compound LYRSPSAMPENL, the “phosphorylation signal by human Chk2 kinase (graded)” value is “+”.
As to RYSLPPELSNM, the “phosphorylation signal by human Chk2 kinase (graded)” value is on record as “+”.

The test is the same for the next values; noted with them: peptide synthesized on membrane (about 0.1 micro-mol/cm^2); Gst-Chk2 about 5 μg in 4 ml reaction buffer, γ-33P-ATP, RT 1 hr; image analyzer signal graded −, +, ++, +++.
With LYSSPSMPENL, the “in vitro phosphorylation by human Chk2 kinase (graded signal)” value (“in vitro phosphorylation” below) is given as “+”.
As for LYRSPSYWENL, the “in vitro phosphorylation” value is listed as “+”.
For the compound LYTSPSHPENL, the “in vitro phosphorylation” value is reported as “+”.
The same measure, in the same setting: the same measure for LYHSPSYYENL: “+++”.
LYTSPSYPENL: the “in vitro phosphorylation” value was “++”.
With LYSSPSHYENL, the “in vitro phosphorylation” value is given as “++”.
As for LYRSPSNWENL, the “in vitro phosphorylation” value is “+”.
For LYTSPSFPENL, the “in vitro phosphorylation” value is recorded as “++”.
For the compound LYSSPSQPENL, the “in vitro phosphorylation” value is on record as “+”.
Take LYHSPSYFENL: the “in vitro phosphorylation” value is “+”.
Consider LYRSPSHFENL, for which the “in vitro phosphorylation” value was “+”.
As to LYTSPSYYENL, the “in vitro phosphorylation” value is reported as “+++”.
Turning to LYTSPSFYENL, the “in vitro phosphorylation” value is reported as “++”.
LYRSPSHYENL: the “in vitro phosphorylation” value is on record as “+”.
Same read-out and setting: the same measure for LFTSPSYWENL: “+”; for LYSSPSYFENL: “+”; for LYTSPSFWENL: “++”.
For the compound LFTSPSYYENL, the “in vitro phosphorylation” value is given as “+++”.
The same measure, in the same setting: the same measure for LYSSPSFYENL: “+”; for LYTSPSMYENL: “++”.
As for LYSSPSMYENL, the “in vitro phosphorylation” value is listed as “+”.
Consider LYTSPSNFENL, for which the “in vitro phosphorylation” value was “+”.
With LYRSPSHWENL, the “in vitro phosphorylation” value is recorded as “+”.
Same read-out and setting: the same measure for LYHSPSYWENL: “+”; for LYTSPSHYENL: “+”; for LYSSPSMWENL: “+”.
Same read-out and setting: the same measure for LYTSPSMWENL: “++”.
For LYTSPSYWENL, the “in vitro phosphorylation” value is “++”.
As to LYTSPSHWENL, the “in vitro phosphorylation” value is “+”.
As for LFTSPSYPENL, the “in vitro phosphorylation” value is “+”.
As for LYSSPSYWENL, the “in vitro phosphorylation” value is on record as “+”.
Still for that read-out and setting: the same measure for LYTSPSHFENL: “+”; for LYHSPSYPENL: “+”.
For LYSSPSYPENL, the “in vitro phosphorylation” value is “+”.
On the same count and under the same terms, the same measure for RYSLPPELSNM: “+”; for LYSSPSHFENL: “++”.
For LYSSPSFPENL, the “in vitro phosphorylation” value is reported as “+”.
On to LYTSPSNPENL, for which the “in vitro phosphorylation” value is on record as “+”.
Take LFTSPSYFENL: the “in vitro phosphorylation” value was “+”.
For LYSSPSHPENL, the “in vitro phosphorylation” value is listed as “++”.
LYTSPSNYENL: the “in vitro phosphorylation” value was “+”.
Still for that read-out and setting: the same measure for LYSSPSYYENL: “+”; for LYRSPSHPENL: “+”.
As to LYTSPSFFENL, the “in vitro phosphorylation” value was “++”.
For the compound LYTSPSMFENL, the “in vitro phosphorylation” value was “++”.
On to LYSSPSMFENL, for which the “in vitro phosphorylation” value is reported as “+”.
Regarding LYRSPSNYENL, the “in vitro phosphorylation” value was “+”.
LYTSPSNWENL: the “in vitro phosphorylation” value is “+”.
For LYRSPSNPENL, the “in vitro phosphorylation” value was “+”.
As to LYSSPSHWENL, the “in vitro phosphorylation” value is on record as “++”.
Take LYSSPSFFENL: the “in vitro phosphorylation” value was “+”.
With LYTSPSYFENL, the “in vitro phosphorylation” value was “++”.
For LYRSPSYFENL, the “in vitro phosphorylation” value is reported as “+”.
For the compound LYSSPSQWENL, the “in vitro phosphorylation” value is “+”.
Consider LYRSPSMPENL, for which the “in vitro phosphorylation” value is on record as “+”.
Consider LYSSPSFWENL, for which the “in vitro phosphorylation” value is “+”.
Turning to LYRSPSYYENL, the “in vitro phosphorylation” value is on record as “+”.
As to LYTSPSMPENL, the “in vitro phosphorylation” value is given as “++”.

Staying with this test, now noted: peptide synthesized on membrane, about 0.1 micro-mol/cm^2; Gst-Chk2 about 5 μg in 4 ml, γ-33P-ATP, RT 1 hr; image analyzer signal graded −, +, ++, +++.
Turning to 1129 (WYRSPSFYENL) [compound 1129], the “in vitro phosphorylation” value is given as “+++”.
Consider 1212 (WYTSPSYPENL) [compound 1212], for which the “in vitro phosphorylation” value is “++”.
Turning to 1130 (WYRSPSFWENL) [compound 1130], the “in vitro phosphorylation” value is “++”.
As to 1125 (WYRSPSMWENL) [compound 1125], the “in vitro phosphorylation” value is “++”.
On to 1124 (WYRSPSMYENL) [compound 1124], for which the “in vitro phosphorylation” value is reported as “++”.
On the same count and under the same terms, the same measure for 1132 (WYRSPSYPENL) [compound 1132]: “++”; for 1134 (WYRSPSYYENL) [compound 1134]: “++”; for 1127 (WYRSPSFPENL) [compound 1127]: “++”.
As for 1128 (WYRSPSFFENL) [compound 1128], the “in vitro phosphorylation” value is “++”.

The next test has as its system histone H1 kinase activity. As to the kind of experiment: Histone H1 kinase assay on lysates of treated Jurkat cells. The test is classed as cell-based, human. The settings on record: FIG. 2B; bleomycin 10 μg/ml or hydroxyurea 100 μg/ml; 6 hr. On the procedure:
Histone H1 kinase assay. Ten million Jurkat cells were treated with hydroxyurea (100 μg/ml), bleomycin (10 μg/ml), or colchicine (5 μg/ml) with or without addition of TAT-S216A, TAT-S216 or TAT-Control (10 μM) for 6 hr. The cells were washed in cold PBS and lysed at 4° C. in 1 ml of buffer A (50 mM Tris pH 8, 2 mM DTT, 5 mM EDTA, 100 mM NaCl, 0.5% NP40, 20 mM Na3V04, 50 mM NaF, 4 μM Okadaic acid, 5 μg/ml aprotinin, 5 μg/ml pepstatin A and 5 μg/ml leupeptin.). Twenty microliter of p13^suc1 agarose beads (Upstate Biotechnology., Saranac, N.Y.) were added to the cleared lysates, incubated for 4 hr at 4° C., and washed five times with buffer A without 5 mM EDTA, 20 mM Na3V04, 50 mM NaF, 4 μM Okadaic acid. Histone HI kinase activity on the beads were analyzed by using Cdc2 kinase assay kit (Upstate Biotechnology) with [γ-^32P] ATP, followed by 12% SDS-PAGE electrophoresis, and autoradiographed to detect the phosphorylated Histone H1.
The cell cycle status of the cells treated with TAT-S216A or TAT-S216 upon the DNA damage-induced G2 arrest was analyzed by FACS analysis. Histone H1 kinase activities of theses cells were simultaneously monitored. […] Results are shown in FIG. 2: abrogation of DNA damage-induced G2 arrest by TAT-S216A and TAT-S216 peptides. FIG. 2A, FACS analysis of Jurkat cells treated with bleomycin and peptides. Cells were treated with bleomycin (10 μg/ml) with or without peptides (10 μM) for 20 hr. B, histone H1 kinase analysis. Cell lysates were prepared from the cells treated with the indicated reagent for 6 hr. Concentrations used were: hydroxyurea (HU), 100 μg/ml; bleomycin (Bleo), 10 μg/ml; colchicine, 5 μg/ml; TAT-S216A and TAT-S216, 10 μM. C, FACS analysis of colchicine -and peptide-treated cells. Jurkat cells were treated with colchicine (5 μg/ml) with or without peptide (10 μM) for 20 hr.
On to `NC(=O)NO` [hydroxyurea, Hydroxyurea], for which the “histone H1 kinase activity on treatment with drug alone” value is listed as “decreased”.
